Source: patent publication US20150231240A1, “ANTI-C16ORF54 ANTIBODIES AND METHODS OF USE THEREOF” (priority 2012, published 2015)

T1: human C16orf54 (Homo sapiens, UniProt Q6UWD8)
T1 construct: expressed in transfected cells; host or cells: murine sarcoma cells (D42M1-huC16orf54)
T1 sequence (Q6UWD8 1-224): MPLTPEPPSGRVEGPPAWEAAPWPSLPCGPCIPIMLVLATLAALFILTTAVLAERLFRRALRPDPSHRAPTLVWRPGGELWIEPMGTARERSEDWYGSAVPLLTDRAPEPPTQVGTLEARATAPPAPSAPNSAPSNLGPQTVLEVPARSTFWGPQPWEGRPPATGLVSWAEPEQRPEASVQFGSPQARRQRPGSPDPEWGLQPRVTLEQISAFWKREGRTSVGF

T2: extracellular domain of c16orf54 (amino acids 1-31) fused to human IgG1 Fc (Homo sapiens, UniProt Q6UWD8)
T2 construct: the extracellular domain of c16orf54 (amino acids 1-31) either N terminal or C-terminal to a human IgG1 Fc domain; made in house; host or cells: 293 T cells, transient; Protein A purification
T2 sequence (Q6UWD8 1-31 limits assumed): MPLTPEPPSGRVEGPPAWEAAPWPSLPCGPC

T3: cynomolgus monkey C16orf54 (cynomolgus monkey (Macaca fascicularis), UniProt Q6UWD8 1-224 (human entry))
T3 construct: also called cyno C16orf54; cyno-C16orf54
T3 chain: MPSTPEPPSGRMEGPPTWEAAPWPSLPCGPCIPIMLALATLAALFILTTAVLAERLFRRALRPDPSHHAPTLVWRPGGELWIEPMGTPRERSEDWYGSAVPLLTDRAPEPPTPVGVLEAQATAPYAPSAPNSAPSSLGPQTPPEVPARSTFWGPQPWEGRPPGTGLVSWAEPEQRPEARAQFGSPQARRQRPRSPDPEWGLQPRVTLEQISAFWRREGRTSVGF

T4: human C16orf54 ECD fragment aa1-15 (human)
T4 peptide: MPLTPEPPSGRVEGP

T5: human C16orf54 ECD fragment aa9-24 (human)
T5 peptide: SGRVEGPPAWEAAPWP

T6: human C16orf54 (human, UniProt Q6UWD8 1-224)
T6 construct: also called huC16orf54; hC16orf54
T6 sequence: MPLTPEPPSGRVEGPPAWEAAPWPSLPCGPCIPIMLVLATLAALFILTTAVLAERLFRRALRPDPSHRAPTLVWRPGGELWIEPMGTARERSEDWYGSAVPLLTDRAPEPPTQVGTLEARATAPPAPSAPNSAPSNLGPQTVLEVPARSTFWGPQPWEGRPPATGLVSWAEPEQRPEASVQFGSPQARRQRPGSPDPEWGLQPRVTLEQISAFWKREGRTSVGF

T7: Human C16-ECD peptide (aa1-31) (human)
T7 construct: Coated on plates in the peptide ELISA; also called human extracellular domain peptide
T7 peptide: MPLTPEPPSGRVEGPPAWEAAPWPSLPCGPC

B1: R29-8-57B: murine anti-C16orf54 monoclonal antibody; VH SEQ ID NO: 20, VL SEQ ID NO: 22 (antibody, V domains shown)
VH: MRVLILLWLFTAFPGILSDVQLQESGPGLVKPSQSLSLTCTVTGYSITSDYAWNWIRQFPGNKLEWMGYINYSGSTRYNPSLKSRISITRDTSKNHFFLQLNSVTPEDTATYHCARERYDGVYYGMDYWGQGTSVTVSS
VL: MDSQAQVLMSLLLWVSGTCGDIVMSQSPSSLAVSVGEKVTMSCKSSQSLLYSSNQKNYLAWYQQKPGQSPKLLIYWASTRESGVPDRFTGSGSGTDFTLTISSVKTEDLAVYYCQQYYSYRTFGGGTKLEIK
modifications: R29-8-57B heavy chain variable region; R29-8-57B light chain variable region
B2: R29-8-136C: murine anti-C16orf54 monoclonal antibody; VH SEQ ID NO: 16, VL SEQ ID NO: 18 (antibody, V domains shown)
VH: MRVLILLWLFTAFPGILSDVQLQESGPGLVKPSQSLSLTCTVTGYSITSDYAWNWIRQFPGNKLEWMGYINYSGSSRYNPSLKSRISITRDTSKNHFFLQLNSVTPEDTATYHCARERYDGVYYGMDYWGQGTSVTVSS
VL: MDSQAQVLMSLLLWVSGTCGDIVMSQSPSSLAVSVGEKVTMSCKSSQSLLYSSNQKNYLAWYQQKPGQSPKLLIYWASTRESGVPDRFTGSGSGTDFTLTISSVKTEDLAVYYCQQYYSYRTFGGGTKLEIK
modifications: R29-8-136C heavy chain variable region; R29-8-136C light chain variable region
B3: R29-8-57B (antibody, V domains shown)
VH: DVQLQESGPGLVKPSQSLSLTCTVTGYSITSDYAWNWIRQFPGNKLEWMGYINYSGSTRYNPSLKSRISITRDTSKNHFFLQLNSVTPEDTATYHCARERYDGVYYGMDYWGQGTSVTVSS
VL: DIVMSQSPSSLAVSVGEKVTMSCKSSQSLLYSSNQKNYLAWYQQKPGQSPKLLIYWASTRESGVPDRFTGSGSGTDFTLTISSVKTEDLAVYYCQQYYSYRTFGGGTKLEIK
notes: Murine monoclonal antibody from a hybridoma
B4: R29-8-136C (antibody, V domains shown)
VH: DVQLQESGPGLVKPSQSLSLTCTVTGYSITSDYAWNWIRQFPGNKLEWMGYINYSGSSRYNPSLKSRISITRDTSKNHFFLQLNSVTPEDTATYHCARERYDGVYYGMDYWGQGTSVTVSS
VL: DIVMSQSPSSLAVSVGEKVTMSCKSSQSLLYSSNQKNYLAWYQQKPGQSPKLLIYWASTRESGVPDRFTGSGSGTDFTLTISSVKTEDLAVYYCQQYYSYRTFGGGTKLEIK
notes: as for B3

How the values were obtained:
[1] = target: T1, human C16orf54; assay: Flow cytometry reactivity with sarcoma cells expressing human C16orf54 (fold change over isotype); type: binding; settings: for binding to human C16orf54 (flow cytometry): sarcoma cells expressing human C16orf54, 10 μg/ml antibody
Experimental: (§1) Anti-C16orf54 antibodies which bound to human C16orf54 were tested for their reactivity with human C16orf54 and their crossreactivity with C16orf54 from cynomolgous monkeys (cyno C16orf54) using flow cytometry. Sarcoma cells transfected with and expressing human C16orf54 or cyno C16orf54 were washed with PBS with 0.1% BSA, incubated with FcX receptor blocking solution (BioLegend) for 15 minutes, incubated with 10 μg/ml of anti-C16orf54 antibody for 1 hour at 4° C., washed twice with PBS with 0.1% BSA, incubated with 20 μg/ml of R-Phycoerythrin-AffiniPure F(ab′)2 Fragment Goat Anti-Mouse IgG, Fcγ Fragment Specific (Jackson ImmunoResearch) for 30 minutes at 4° C., washed twice with PBS with 0.1% BSA, incubated with the viability dye TO-PRO-3 iodide (Life Technologies), and immediately analyzed on a MACSQuant Analyzer instrument (Miltenyi). For each cell line and anti-C16orf54 antibody, a fold change was derived by dividing the median fluorescence intensity for Phycoerythrin in the live cell population for the anti-C16orf54 antibody by the median fluorescence intensity for Phycoerythrin in the live cell population for the IgG isotype control antibody.

[2] = system: human C16orf54 extracellular domain peptides; assay: C16orf54 peptide ELISA, human extracellular domain peptides; type: binding; settings: human, cyno, or mouse extracellular domain peptides, not told apart; 10 μg/ml antibody
Experimental: (§2) Anti-C16orf54 antibodies which bind to human C16orf54, including antibodies that are crossreactive with cyno C16orf54, were tested for their binding to various peptides derived from C16orf54 in a peptide ELISA. A 384-well high binding black microplate (Greiner) was incubated with 2 μg/ml of protein (human, cyno, or mouse extracellular domain peptides) for 16 hours, incubated for 1 hr with a blocking buffer (PBS with 5% Fetal Bovine Serum), washed four times with TBS with Tween, incubated for 1 hour with 10 μg/ml of anti-C16orf54 antibody, washed four times with TBS with Tween, incubated for 1 hour with 10 μg/ml of Peroxidase-AffiniPure Goat Anti-Mouse IgG, Fcγ Fragment Specific (Jackson ImmunoResearch), washed four times with TBS with Tween, and peroxidase was detected with a luminometer (Molecular Devices) upon addition of SuperSignal® ELISA Pico Chemiluminescent Substrate (Thermo Scientific). The luminescence signal was determined.

[3] = target: T2, extracellular domain of c16orf54 (amino acids 1-31) fused to human IgG1 Fc; assay: C16orf54 peptide-Fc fusion protein ELISA; type: binding; settings: serial dilution of antibody; HRP-conjugated anti mouse secondary
Experimental: Anti-C16orf54 antibodies which bind to human C16orf54, including antibodies that are crossreactive with cyno C16orf54, were tested for their binding to various peptides derived from C16orf54 that were fused to human IgG (e.g., IgG1) constant regions to generate various peptide-Fc fusion proteins in an Fc-based ELISA. An exemplary Fc sequence comprises an IgG1 Hinge region sequence and IgG1 CH3 and […] domain sequences.
The fusion proteins were transiently expressed in 293 T cells. Protein was purified from the 293 expression supernatants by Protein A-based affinity purification. Exemplary C16 peptide-Fc fusion constructs that were made and purified are shown with their protein yield in Table 38. ELISA assays were performed by coating 384 well plates with the fusion proteins overnight at 4C. Antibodies were analyzed by serial dilution with concentrations ranging from 40 ug/mL to […]. Binding was detected with an HRP-conjugated anti mouse secondary antibody.

[4] = system: C16orf54 ECD peptides; assay: Peptide crossblocking (Table 36); type: binding
[5] = target: T3, cynomolgus monkey C16orf54; assay: flow cytometry titration, F279-cyno-C16orf54 cells
Experimental: Anti-C16orf54 antibodies which bound to human C16orf54 were tested for their binding to cells expressing human C16orf54 and cells expressing cyno C16orf54. […] Median fluorescence intensities for each primary antibody concentration were used to derive a flow EC50/Kd using the one site-specific binding with Hill slope model in Prism (GraphPad Prism® Software). Results are shown as flow EC50 in Table 35.

[6] = target: T4, human C16orf54 ECD fragment aa1-15; assay: peptide ELISA, 2 ug/ml peptide coated, 10 ug/ml antibody
Experimental: as §2

[7] = target: T5, human C16orf54 ECD fragment aa9-24; assay: as above
Experimental: as §2

[8] = target: T6, human C16orf54; assay: flow cytometry, 10 ug/ml antibody, D42M1-huC16orf54 cells
Experimental: as §1, with “antibody. A number of anti-C16orf54 antibodies (see, e.g., R29-8-57B, R29-8-136C, R29-7-1C, R29-67-7A, R29-67-4A, and R29-7-2A) bind human C16orf54 and also bind (e.g., are crossreactive with) cyno C16orf54.” for “antibody.”

[9] = target: T3, cynomolgus monkey C16orf54; assay: flow cytometry, 10 ug/ml antibody, F279-cyno-C16orf54 cells
Experimental: as §1, with “antibody. A number of anti-C16orf54 antibodies (see, e.g., R29-8-57B, R29-8-136C, R29-7-1C, R29-67-7A, R29-67-4A, and R29-7-2A) bind human C16orf54 and also bind (e.g., are crossreactive with) cyno C16orf54.” for “antibody.”

[10] = target: T6, human C16orf54; assay: flow cytometry titration, KG1 cells (endogenous human C16orf54)
[11] = target: T7, Human C16-ECD peptide (aa1-31); assay: column head 'Full kinetics (nM)' in the table of the C16orf54 peptide binding assays; method and antigen not described; 3 runs

Row | Molecule | binding to C16orf54-expressing cells (dual binders) [1] | binding to human C16orf54 (flow cytometry) [1] | binding to peptides derived from the extracellular domain of C16orf54 (peptide ELISA) [2] | binding to peptide-Fc fusion proteins (Fc-based ELISA) [3] | Peptide crossblocking [4] | EC50 [5] [nM] | binding result [6] | binding result [7] | Median fold change relative to IgG control [8] [fold] | Median fold change relative to IgG control [9] [fold] | EC50 [10] [nM] | Kd [11] [nM]
1 | B1 | bind to C16orf54-expressing cells | bind human C16orf54 | bind to the various peptides derived from the extracellular domain (ECD) of C16orf54 | able to bind to the peptide-Fc fusion proteins | aa1-31, aa1-15 |  |  |  |  |  |  | 
2 | B2 | bind to C16orf54-expressing cells | bind human C16orf54 | bind to the various peptides derived from the extracellular domain (ECD) of C16orf54 |  | aa1-31, aa1-15 |  |  |  |  |  |  | 
3 | B3 |  |  |  |  |  | 2.5 | binds | binds | 204 | 62 | 0.1 | 0.6
4 | B4 |  |  |  |  |  | 2.5 | binds | binds | 202 | 61.6 | 0.2 | 0.64
